This data set deals with CNBP full-length. In words: MST. The following applies: MST Buffer (composition, salt and pH not given); RED-Tris-NTA labeling 30 min at room temperature; RNA in 16 two-fold dilutions; 60% LED, high MST power ….

As for SARS-CoV-2 genome RNA, the Kd is 29.7 ng/µL.

What is called Kd is the concentration at which binding is half-saturated.

The values above are taken from article PMC10666094.
